From article PMC4486081 (Oncogene, 2015) come the findings set out here.

For the assay, the target named is Recombinant full length FAK (focal adhesion kinase), GST-tagged, phospho-Y397 (UniProt Q05397 1-1052, phosphotyrosine at 397). Nature of the assay: co-IP.
Chain of Recombinant full length FAK (focal adhesion kinase), GST-tagged, phospho-Y397 (Q05397 whole entry): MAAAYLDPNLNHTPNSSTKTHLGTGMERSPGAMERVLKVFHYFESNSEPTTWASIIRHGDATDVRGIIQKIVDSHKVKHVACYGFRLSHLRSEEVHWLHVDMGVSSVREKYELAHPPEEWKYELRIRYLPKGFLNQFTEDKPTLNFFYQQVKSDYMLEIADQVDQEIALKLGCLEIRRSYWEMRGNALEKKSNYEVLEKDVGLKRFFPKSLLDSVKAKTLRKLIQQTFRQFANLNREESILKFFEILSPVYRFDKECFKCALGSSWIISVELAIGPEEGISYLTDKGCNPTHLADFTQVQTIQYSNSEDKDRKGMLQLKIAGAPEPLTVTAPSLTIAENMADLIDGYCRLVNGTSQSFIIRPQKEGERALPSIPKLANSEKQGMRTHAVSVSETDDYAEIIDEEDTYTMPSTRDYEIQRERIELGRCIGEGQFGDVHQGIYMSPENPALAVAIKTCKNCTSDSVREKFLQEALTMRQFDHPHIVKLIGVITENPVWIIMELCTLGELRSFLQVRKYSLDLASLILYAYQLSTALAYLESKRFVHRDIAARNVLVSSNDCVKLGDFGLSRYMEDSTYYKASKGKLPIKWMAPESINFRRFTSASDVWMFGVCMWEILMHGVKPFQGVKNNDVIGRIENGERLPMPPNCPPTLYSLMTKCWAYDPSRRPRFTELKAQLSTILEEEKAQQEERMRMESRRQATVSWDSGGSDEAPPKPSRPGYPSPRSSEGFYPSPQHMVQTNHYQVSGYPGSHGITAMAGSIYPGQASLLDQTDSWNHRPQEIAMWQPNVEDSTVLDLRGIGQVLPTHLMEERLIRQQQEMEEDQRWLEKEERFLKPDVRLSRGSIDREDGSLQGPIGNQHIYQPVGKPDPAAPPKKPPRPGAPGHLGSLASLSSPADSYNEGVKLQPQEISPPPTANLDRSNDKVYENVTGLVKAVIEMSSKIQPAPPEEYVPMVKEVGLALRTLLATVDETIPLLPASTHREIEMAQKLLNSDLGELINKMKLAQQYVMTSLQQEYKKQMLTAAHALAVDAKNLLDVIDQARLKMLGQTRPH

B1: Recombinant active PKM2 (pyruvate kinase M2), 1-531 aa with N-terminal His-tag (enzyme)
chain: not shown
Regarding B1, the binding result is reported as “binds”.
